Columns and labels:
NFκB target genes = assay: Expression of NFκB target genes in PC-3 cells (RNA-seq, RT-qPCR); assay type: cell-based, human; settings: PC-3 cells, IKK-16 5 μM or ACHP 20 μM, 24 hours
Method: FIGS. 4A-G. RB globally regulates NFkB transcriptional program in cells. […] (F, G) PC-3 cell were treated with or without palbociclib (5 μM) for 24 hours or PC-3 cells were infected with lentivirus expressing control shRNA or RB-specific shRNA following puromycin selection after 48 hours infection. Cells were harvested for RT-qPCR (F) and ChIP-qPCR (G) analysis of p65 binding at the promotor of PD-L1, GADD45B, NR4A2, and CD83. All data were shown as mean values±SD (n=3). * P<0.05, ** P<0.01, ***P<0.001.
FIGS. 16A-K. Mutual exclusivity of PTEN and MAP3K7 gene deletion in human cancers and CDK4/6 inhibition-mediated blockage of MAP3K7 deficiency-induced death of PTEN-null cells. (A) Genetic alterations of MAP3K7 and PTEN genes in the TCGA prostate cancer dataset. (B) Genetic alterations of MAP3K7 and PTEN genes in lymphoid neoplasm diffuse large B-cell lymphoma, stomach adenocarcinoma, pancreatic cancer, liver cancer, bladder urothelial carcinoma, and lung adenocarcinoma. (C-E) PC-3 cells were infected with lentivirus expressing control or MAP3K7-specific shRNAs. 72 hours after infection, cells were harvested for western blotting (C), cell growth assay (D), and colony formation assay (E). All data were shown as mean values±SD (n=3). ns, not significant, * P<0.05 comparing to the shControl group. (F-H) LNCaP-RF prostate cancer cells were infected with lentivirus expressing control or MAP3K7-specific shRNAs. 72 hours after infection, cells were harvested for western blotting (F), cell growth assay (G), and colony formation assay (H). All data are shown as mean values±SD (n=3). ns, not significant, * P<0.05 comparing to the shControl group. (I-K) PC-3 cells were infected with lentivirus expressing control, MAP3K7 or CHD1-specific shRNAs. 72 hours after infection, cells were treated with DMSO or palbociclib (5 μM). […]
FIGS. 17A-I. Negative regulation of MAP3K7-IKK-NFκB and CHD1-NFκB signaling by RB. […] 72 hours after infection and puromycin selection, cells were injected s.c. into the right flank of NSG mice, and tumor growth was measured for 21 days. […]

p65 = target: T1, p65 (Homo sapiens, UniProt Q04206); assay: Co-IP of p65 by SFB-tagged RL peptide in 293T cells; assay type: binding; settings: 48 hours after transfection
T1 construct: endogenous in cells; host or cells: 293T
T1 sequence (Q04206 whole entry): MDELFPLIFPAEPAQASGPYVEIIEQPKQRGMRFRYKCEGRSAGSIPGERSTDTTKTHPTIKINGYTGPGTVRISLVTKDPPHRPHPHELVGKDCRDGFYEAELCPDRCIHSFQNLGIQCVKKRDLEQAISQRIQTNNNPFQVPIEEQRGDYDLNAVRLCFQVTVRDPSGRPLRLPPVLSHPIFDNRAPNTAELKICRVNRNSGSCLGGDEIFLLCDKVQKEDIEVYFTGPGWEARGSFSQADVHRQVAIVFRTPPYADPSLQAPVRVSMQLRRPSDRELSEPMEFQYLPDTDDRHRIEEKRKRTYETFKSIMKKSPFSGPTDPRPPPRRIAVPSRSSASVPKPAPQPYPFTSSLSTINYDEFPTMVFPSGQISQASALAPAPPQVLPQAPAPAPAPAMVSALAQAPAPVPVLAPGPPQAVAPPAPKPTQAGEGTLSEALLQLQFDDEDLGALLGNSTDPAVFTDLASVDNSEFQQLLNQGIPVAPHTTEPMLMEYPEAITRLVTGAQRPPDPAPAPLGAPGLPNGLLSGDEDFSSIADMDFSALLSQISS
Method: FIGS. 10A-G. (A) Schematic diagram depicting a set of RB-N recombinant protein constructs. Western blot analysis of p65 proteins in PC-3 cells whole cell lysate pulled down by GST or GST-RB-N recombinant proteins. Stars indicate expected molecular weight. (B) Western blot analysis of in vitro transcribed and translated p65 proteins pulled down by GST or GST-RB recombinant proteins. Stars indicate expected molecular weight. (C) Western blot analysis of WCL and co-IP samples in 293T cells 48 h after transfected with indicated constructs. (D) Schematic diagram depicting an evolutionally conserved R-linker region in the N-terminal of RB. FIG. 10D discloses SEQ ID NOS 265 and 271-274, respectively, in order of appearance. (E) Western blot analysis of WCL and co-IP samples in 293T cells 48 hours after transfected with indicated constructs. (F) PC-3 cells were transfected with indicated plasmids. Western blot analysis of HA-RB proteins in PC-3 whole cell lysate pulled down by GST or GST-p65 recombinant proteins. Stars indicate expected molecular weight. (G) Schematic diagram depicting fully positively charged RB-N allows otherwise negatively charged by S249/T252 phosphorylation to bind to negatively charged 166FSLMV170 motif (SEQ ID NO: 286) in EID1. FIG. 10G discloses SEQ ID NOS 265-266 and 275, respectively, in order of appearance. […]

p65 NFκB protein [1] = target: T2, p65 NFκB protein (human, UniProt Q04206 1-551); assay: in vitro protein binding assay with in vitro transcribed and translated p65 (FIG. 10A)
T2 construct: The same entry is used for endogenous p65 and for in vitro translated p65; which one stood in the assay is told under assay; also called endogenous p65; in vitro transcribed and translated p65 (pCMV4 p65)
T2 sequence (Q04206 whole entry): as above

p65 NFκB protein [2] = target: T2, p65 NFκB protein; assay: co-IP from 293T cells transfected with SFB-tagged constructs (FIG. 10C)
[3] = target: T3, retinoblastoma protein RB (endogenous) (human, UniProt P06400 2-928); assay: co-IP of endogenous proteins in PC-3 cells, western blot (FIG. 2A)
T3 construct: Endogenous protein of cell lysates, phosphorylation state as in the cells; also called RB1; endogenous RB
T3 sequence (looked up): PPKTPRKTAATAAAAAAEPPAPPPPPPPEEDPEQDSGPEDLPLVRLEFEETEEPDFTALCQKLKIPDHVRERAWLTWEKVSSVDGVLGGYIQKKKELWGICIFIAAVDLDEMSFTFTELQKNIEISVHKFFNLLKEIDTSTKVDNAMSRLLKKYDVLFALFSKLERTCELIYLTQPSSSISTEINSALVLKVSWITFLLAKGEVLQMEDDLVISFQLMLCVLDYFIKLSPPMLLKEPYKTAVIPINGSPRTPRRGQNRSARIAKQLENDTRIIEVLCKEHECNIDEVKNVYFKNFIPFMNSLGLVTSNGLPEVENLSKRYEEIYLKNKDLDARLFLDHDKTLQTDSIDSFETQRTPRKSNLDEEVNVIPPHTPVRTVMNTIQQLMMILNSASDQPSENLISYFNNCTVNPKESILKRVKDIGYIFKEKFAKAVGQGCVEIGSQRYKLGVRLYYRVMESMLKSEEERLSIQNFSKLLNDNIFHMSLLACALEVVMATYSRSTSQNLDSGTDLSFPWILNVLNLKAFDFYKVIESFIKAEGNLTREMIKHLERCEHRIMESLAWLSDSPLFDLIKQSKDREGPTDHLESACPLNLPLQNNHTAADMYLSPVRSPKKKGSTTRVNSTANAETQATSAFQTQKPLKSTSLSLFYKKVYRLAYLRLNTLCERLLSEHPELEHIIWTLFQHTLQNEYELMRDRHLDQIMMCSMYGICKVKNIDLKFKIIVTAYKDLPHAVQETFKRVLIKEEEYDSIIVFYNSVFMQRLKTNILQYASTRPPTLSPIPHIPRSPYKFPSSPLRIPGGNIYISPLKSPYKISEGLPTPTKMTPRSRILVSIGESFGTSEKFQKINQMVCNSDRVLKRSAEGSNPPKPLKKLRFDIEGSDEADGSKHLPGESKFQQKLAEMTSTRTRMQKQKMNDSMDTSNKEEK

p65 NFκB protein [4] = target: T2, p65 NFκB protein; assay: GST pull down from PC-3 whole cell lysate, western blot
Method: Cells were lysed with IP buffer (50 mM Tris-HCl, pH 7.4, 150 mM NaCl, 1% Triton X-100, 1% sodium deoxycholate, and 1% protease inhibitor cocktails) on ice for more than 30 minutes. GST fusion proteins were immobilized on glutathione-Sepharose beads (GE Healthcare Lifesciences). After washing with lysis buffer, the beads were incubated with cell lysates overnight at 4° C. overnight. The beads were then washed six times with binding buffer and re-suspended in sample buffer. The bound proteins were subjected to western blotting analysis.

N#Cc1c(C2CCNCC2)cc(-c2c(O)cccc2OCC2CC2)nc1N [ACHP]
NFκB target gene expression (NFκB target genes): decreased

O=C(c1ccc(Nc2nccc(-c3cc4ccccc4s3)n2)cc1)N1CCC(N2CCCC2)CC1 [IKK-16]
NFκB target gene expression (NFκB target genes): decreased

RL-S249A/T252A: unphosphorylable (phosphorylation-resistant) mutant of the RL peptide (NGAPRAPRRGQNRSARIAKQL; left off: small tags and cut ends) [reference compound]
immunoprecipitation of p65 by SFB-tagged RL peptide (p65): largely diminished

B1: GST-RB-NΔ1 (N-terminal portion of RB-N, amino acids 1-266) (other, not shown: a dimerising Fc or GST; small tags and cut ends)
chain: MPPKTPRKTAATAAAAAAEPPAPPPPPPPEEDPEQDSGPEDLPLVRLEFEETEEPDFTALCQKLKIPDHVRERAWLTWEKVSSVDGVLGGYIQKKKELWGICIFIAAVDLDEMSFTFTELQKNIEISVHKFFNLLKEIDTSTKVDNAMSRLLKKYDVLFALFSKLERTCELIYLTQPSSSISTEINSALVLKVSWITFLLAKGEVLQMEDDLVISFQLMLCVLDYFIKLSPPMLLKEPYKTAVIPINGSPRTPRRGQNRSARIAKQ
binding result (p65 NFκB protein [1]): binds

B2: SFB-tagged RB-N (other, human, UniProt P06400 1-379, looked up, not shown: small tags and cut ends)
chain: MPPKTPRKTAATAAAAAAEPPAPPPPPPPEEDPEQDSGPEDLPLVRLEFEETEEPDFTALCQKLKIPDHVRERAWLTWEKVSSVDGVLGGYIQKKKELWGICIFIAAVDLDEMSFTFTELQKNIEISVHKFFNLLKEIDTSTKVDNAMSRLLKKYDVLFALFSKLERTCELIYLTQPSSSISTEINSALVLKVSWITFLLAKGEVLQMEDDLVISFQLMLCVLDYFIKLSPPMLLKEPYKTAVIPINGSPRTPRRGQNRSARIAKQLENDTRIIEVLCKEHECNIDEVKNVYFKNFIPFMNSLGLVTSNGLPEVENLSKRYEEIYLKNKDLDARLFLDHDKTLQTDSIDSFETQRTPRKSNLDEEVNVIPPHTPVRTVM
notes: Expressed in mammalian cells (293T, PANC-1, H1299, SK-Hep1)
binding result (p65 NFκB protein [2]): binds

B3: p50 subunit of NFκB (other, human, UniProt P19838 1-433, looked up)
chain: MAEDDPYLGRPEQMFHLDPSLTHTIFNPEVFQPQMALPTDGPYLQILEQPKQRGFRFRYVCEGPSHGGLPGASSEKNKKSYPQVKICNYVGPAKVIVQLVTNGKNIHLHAHSLVGKHCEDGICTVTAGPKDMVVGFANLGILHVTKKKVFETLEARMTEACIRGYNPGLLVHPDLAYLQAEGGGDRQLGDREKELIRQAALQQTKEMDLSVVRLMFTAFLPDSTGSFTRRLEPVVSDAIYDSKAPNASNLKIVRMDRTAGCVTGGEEIYLLCDKVQKDDIQIRFYEEEENGGVWEGFGDFSPTDVHRQFAIVFKTPKYKDINITKPASVFVQLRRKSDLETSEPKPFLYYPEIKDKEEVQRKRQKLMPNFSDSFGGGSGAGAGGGGMFGSGGGGGGTGSTGPGYSFPHYGFPTYGGITFHPGTTKSNAGMKHG
binding result [3]: no binding

B4: GST-RB-M (other, human, UniProt P06400 380-792, looked up)
chain: NTIQQLMMILNSASDQPSENLISYFNNCTVNPKESILKRVKDIGYIFKEKFAKAVGQGCVEIGSQRYKLGVRLYYRVMESMLKSEEERLSIQNFSKLLNDNIFHMSLLACALEVVMATYSRSTSQNLDSGTDLSFPWILNVLNLKAFDFYKVIESFIKAEGNLTREMIKHLERCEHRIMESLAWLSDSPLFDLIKQSKDREGPTDHLESACPLNLPLQNNHTAADMYLSPVRSPKKKGSTTRVNSTANAETQATSAFQTQKPLKSTSLSLFYKKVYRLAYLRLNTLCERLLSEHPELEHIIWTLFQHTLQNEYELMRDRHLDQIMMCSMYGICKVKNIDLKFKIIVTAYKDLPHAVQETFKRVLIKEEEYDSIIVFYNSVFMQRLKTNILQYASTRPPTLSPIPHIPRSPYKF
notes: domain: RB-M; not shown: glutathione S-transferase (GST) tag of the fusion
binding result (p65 NFκB protein [4]): no binding

Reference: patent US20210401931A1, “METHODS AND MATERIALS FOR TREATING CANCER” (Mayo Foundation for Medical Education and Research, priority 2018, published 2021)
